B1: library; numbered along this chain (parent)
chain: MRKPRAAVGSGHRKQAASQEGRQKHAKNNSQAKPSACDGLARQPEEVVLQASVSSYHLFRDVAEVTAFRGSLLSWYDQEKRDLPWRRRAEDEMDLDRRAYAVWVSEVMLQQTQVATVINYYTGWMQKWPTLQDLASASLEEVNQLWAGLGYYSRGRRLQEGARKVVEELGGHMPRTAETLQQLLPGVGRYTAGAIASIAFGQATGVVDGNVARVLCRVRAIGADPSSTLVSQQLWGLAQQLVDPARPGDFNQAAMELGATVCTPQRPLCSQCPVESLCRARQRVEQEQLLASGSLSGSPDVEECAPNTGQCHLCLPPSEPWDQTLGVVNFPRKASRKPPREESSATCVLEQPGALGAQILLVQRPNSGLLAGLWEFPSVTWEPSEQLQRKALLQELQRWAGPLPATHLRHLGEVVHTFSHIKLTYQVYGLALEGQTPVTTVPPGARWLTQEEFHTAAVSTAMKKVFRVYQGQQPGTCMGSKRSQVSSPCSRKKPRMGQQVLDNFFRSHISTDAHSLNSAAQ

Variants of: B1
Assay: 8OG:A repair function score (normalized; synonymous = 0, nonsense = -1) (normalized log-likelihood score); higher = more repair activity (WT-like)
Conditions: with 8OG:A DNA repair reporter (GFP) in HEK-293 MUTYH KO cells
Procedure, shortened: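 Per-tile Rosace fitness scores were converted to a normalized repair function score anchored on synonymous and nonsense distributions. That scale puts synonymous medians at 0 and nonsense medians at -1. Variants with starting counts under 300 counts per million were discarded. Input came from sorting viable mCherry+ MUTYH knockout HEK-293 cells, carrying lentiviral MUTYH cDNA NNN codon-scan libraries in 10 pg/ml doxycycline and an 8OG:A GFP repair reporter, into GFP+ and GFP− bins at 72 h, three replicates per tile, followed by tile amplicon sequencing.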
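Further: cells sorted at 72 h after reporter transfection.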

First: R154N
Second: V53S
The “8OG:A repair function score” value of the first is lower: -0.885 for the first, 0.00307 for the second.

First: V211G
Second: V211R
The “8OG:A repair function score” value of the first is higher: -0.791 for the first, -1.02 for the second.

First: R86V
Second: L289S
The “8OG:A repair function score” value of the first is lower: -1.33 for the first, -0.0139 for the second.

Compared with R283D, R283Y is higher in “8OG:A repair function score” value: -0.662 for the first, -0.0964 for the second.

Going from R283M to R283Q, the “8OG:A repair function score” value rises from -0.0516 to -0.0283.

Compared with A137C, A137T is lower in “8OG:A repair function score” value: -0.261 for the first, -0.295 for the second.

Compared with E413Q, E413N is lower in “8OG:A repair function score” value: -0.0587 for the first, -0.0589 for the second.

Compared with P494G, V362G is lower in “8OG:A repair function score” value: -0.0242 for the first, -0.901 for the second.

First: G258Q
Second: R163C
The “8OG:A repair function score” value of the first is lower: -1.21 for the first, -0.00395 for the second.

First: A223S
Second: K80W
The “8OG:A repair function score” value of the first is higher: -0.27 for the first, -0.847 for the second.

Going from K80T to K80A, the “8OG:A repair function score” value rises from -0.469 to -7.55e-05.

Going from A445W to M496D, the “8OG:A repair function score” value rises from -0.606 to 0.00779.

Going from N143F to N143I, the “8OG:A repair function score” value falls from -0.0267 to -0.0751.

Compared with D249P, D502H is higher in “8OG:A repair function score” value: -0.588 for the first, -0.0311 for the second.

First: R2C
Second: Q78H
The “8OG:A repair function score” value of the first is lower: -0.529 for the first, -0.0658 for the second.

Compared with V261W, K333Q is higher in “8OG:A repair function score” value: -0.489 for the first, -0.166 for the second.

Compared with G222N, G222W is higher in “8OG:A repair function score” value: -0.593 for the first, -0.349 for the second.

Compared with L145C, L145F is lower in “8OG:A repair function score” value: 0.112 for the first, 0.0113 for the second.

Compared with S378G, N329A is higher in “8OG:A repair function score” value: -0.248 for the first, -0.161 for the second.

First: A63I
Second: R332V
The “8OG:A repair function score” value of the first is higher: -0.0351 for the first, -0.216 for the second.

Compared with G293Q, G293H is lower in “8OG:A repair function score” value: -0.00725 for the first, -0.05 for the second.

Compared with W399M, P306F is higher in “8OG:A repair function score” value: -0.301 for the first, -0.0382 for the second.

First: S292A
Second: Q113M
The “8OG:A repair function score” value of the first is higher: -0.0285 for the first, -0.593 for the second.

First: R336T
Second: R336V
The “8OG:A repair function score” value of the first is higher: -0.118 for the first, -0.148 for the second.

Going from L360C to T449C, the “8OG:A repair function score” value rises from -0.171 to -0.0406.

First: T449P
Second: T449E
The “8OG:A repair function score” value of the first is lower: -0.0904 for the first, -0.0743 for the second.

Going from R446F to L369Y, the “8OG:A repair function score” value rises from -0.449 to 0.153.

Going from P352F to S515F, the “8OG:A repair function score” value rises from -0.188 to -0.00769.

Going from S515R to E385C, the “8OG:A repair function score” value rises from 0.00703 to 0.258.

Compared with S486L, A357G is lower in “8OG:A repair function score” value: 0.00981 for the first, -0.0641 for the second.

First: T308A
Second: T308H
The “8OG:A repair function score” value of the first is higher: 0.0246 for the first, -0.0553 for the second.

First: T308M
Second: T440G
The “8OG:A repair function score” value of the first is higher: -0.0648 for the first, -0.145 for the second.

Going from T440R to M108I, the “8OG:A repair function score” value falls from -0.0347 to -0.761.

First: M108T
Second: M108Y
The “8OG:A repair function score” value of the first is lower: -0.981 for the first, -0.819 for the second.

Going from M108F to A162V, the “8OG:A repair function score” value rises from -0.641 to -0.278.

Going from A89C to L361Q, the “8OG:A repair function score” value falls from -0.0299 to -0.666.

Compared with L361V, L361R is lower in “8OG:A repair function score” value: -0.0292 for the first, -1.12 for the second.

Compared with A345C, A345L is lower in “8OG:A repair function score” value: 0.0391 for the first, -0.04 for the second.

First: A345Q
Second: A345G
The “8OG:A repair function score” value of the first is lower: -0.264 for the first, -0.243 for the second.

First: R281V
Second: Q470E
The “8OG:A repair function score” value of the first is lower: -0.131 for the first, -0.000322 for the second.

Going from Q470C to G497W, the “8OG:A repair function score” value rises from -0.00083 to 0.0164.

Compared with W128D, S335C is higher in “8OG:A repair function score” value: -1.27 for the first, -0.0251 for the second.

First: G193W
Second: V165M
The “8OG:A repair function score” value of the first is lower: -0.832 for the first, -0.283 for the second.

First: P488Q
Second: K337D
The “8OG:A repair function score” value of the first is higher: -0.00562 for the first, -0.151 for the second.

First: K337M
Second: L229Y
The “8OG:A repair function score” value of the first is lower: -0.112 for the first, 0.0445 for the second.

First: A457L
Second: P273L
The “8OG:A repair function score” value of the first is higher: -0.583 for the first, -0.946 for the second.

Compared with S318F, S318K is lower in “8OG:A repair function score” value: -0.00953 for the first, -0.0665 for the second.

Going from V104C to V104Q, the “8OG:A repair function score” value falls from -0.133 to -1.17.

Compared with L408F, R69K is higher in “8OG:A repair function score” value: -0.529 for the first, -0.298 for the second.

Going from W103E to W103I, the “8OG:A repair function score” value falls from -1.13 to -1.17.

First: P383F
Second: Q426L
The “8OG:A repair function score” value of the first is lower: -0.202 for the first, -0.0573 for the second.

First: L139F
Second: L139V
The “8OG:A repair function score” value of the first is lower: -0.0535 for the first, 0.0777 for the second.

Going from E342P to E342N, the “8OG:A repair function score” value rises from -0.298 to 0.0275.

Going from D208T to R491N, the “8OG:A repair function score” value rises from -1.03 to -0.0106.

Compared with V214Y, S296Y is higher in “8OG:A repair function score” value: -0.782 for the first, 0.0195 for the second.

Compared with L373V, V207I is higher in “8OG:A repair function score” value: -0.504 for the first, -0.363 for the second.

First: V207H
Second: E452C
The “8OG:A repair function score” value of the first is lower: -0.941 for the first, -0.0884 for the second.

Compared with E452W, A391R is higher in “8OG:A repair function score” value: -0.631 for the first, -0.136 for the second.

First: A115C
Second: Q271L
The “8OG:A repair function score” value of the first is lower: -0.0964 for the first, -0.00321 for the second.

First: H407P
Second: H407S
The “8OG:A repair function score” value of the first is higher: -0.0456 for the first, -0.109 for the second.

Going from S490C to Q473F, the “8OG:A repair function score” value rises from -0.0291 to 0.00513.

Compared with D133V, R364M is lower in “8OG:A repair function score” value: -0.0608 for the first, -0.577 for the second.

Going from R364P to E350K, the “8OG:A repair function score” value rises from -0.519 to -0.17.

Going from E350N to Q450G, the “8OG:A repair function score” value rises from -0.112 to -0.0458.

Compared with Q363T, R156H is higher in “8OG:A repair function score” value: -0.255 for the first, -0.0809 for the second.

First: R156A
Second: V327A
The “8OG:A repair function score” value of the first is higher: -0.122 for the first, -0.205 for the second.

Going from P34Q to P34D, the “8OG:A repair function score” value falls from 0.146 to 0.128.

First: P437Y
Second: A51F
The “8OG:A repair function score” value of the first is lower: -0.351 for the first, -0.116 for the second.

Compared with G70S, P377N is lower in “8OG:A repair function score” value: -0.0056 for the first, -0.977 for the second.

Compared with P377H, F59Y is higher in “8OG:A repair function score” value: -1.31 for the first, -0.161 for the second.

Compared with T460Q, L396Y is lower in “8OG:A repair function score” value: -0.131 for the first, -1.21 for the second.

Compared with E375V, E375W is lower in “8OG:A repair function score” value: -0.423 for the first, -0.45 for the second.

Compared with P267M, P267W is lower in “8OG:A repair function score” value: -0.774 for the first, -1.06 for the second.

Compared with K481F, V218E is lower in “8OG:A repair function score” value: 0.0166 for the first, -0.985 for the second.

Going from Q239V to R60Q, the “8OG:A repair function score” value falls from -0.529 to -0.692.

Compared with P185C, V274D is lower in “8OG:A repair function score” value: -0.242 for the first, -1.01 for the second.

Going from M93N to A99K, the “8OG:A repair function score” value falls from 0.00661 to -1.18.

Going from R213S to A520V, the “8OG:A repair function score” value rises from -1.01 to -0.0172.

Compared with T263C, V230I is lower in “8OG:A repair function score” value: -0.141 for the first, -0.264 for the second.

Compared with V230C, G444H is higher in “8OG:A repair function score” value: -0.229 for the first, -0.155 for the second.

Compared with F200K, F200I is higher in “8OG:A repair function score” value: -0.874 for the first, -0.505 for the second.

Going from C269W to V465Q, the “8OG:A repair function score” value rises from -1.4 to -1.17.

First: N119P
Second: T476H
The “8OG:A repair function score” value of the first is lower: -0.0904 for the first, -0.0339 for the second.

With T476R the “8OG:A repair function score” value was -0.0215.
